Data published in US20230057904A1 (Chugai, published 2023).

Columns and labels:
human CLDN3 [1] = target: T1, human CLDN3 (human, UniProt O15551 1-220); experiment: flow cytometry on hCLDN3/BaF (Ba/F3 transfectant), Alexa Fluor 488 anti-human IgG
T1 construct: also called hCLDN3; hCLDN3/BaF
T1 sequence: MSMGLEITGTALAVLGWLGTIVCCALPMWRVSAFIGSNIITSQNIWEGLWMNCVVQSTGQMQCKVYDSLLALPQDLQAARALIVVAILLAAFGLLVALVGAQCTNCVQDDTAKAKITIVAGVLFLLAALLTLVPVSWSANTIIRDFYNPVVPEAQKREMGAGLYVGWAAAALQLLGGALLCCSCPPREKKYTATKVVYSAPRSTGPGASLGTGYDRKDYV
Method: (§1) Amino acid sequence are highly conserved among CLDN3, CLDN4, CLDN6 and CLDN9. Thus we examined CLDN6 binding specificity by FACS analysis. hCLDN6/BaF, hCLDN3/BaF, hCLDN4/BaF, and hCLDN9/BaF were incubated with CS2201, CS2961, AH05/TR01 and 6PHU3/TR01 at 15 micro g/ml. KLH/TR01 generated in Example 2-3 was used as a staining control. Binding of each antibody was detected with Alexa Fluor 488-conjugated anti human IgG (Invitrogen). Dead cells were separated by eFlour 780 (Invitrogen) staining.

human CLDN9 [2] = target: T2, human CLDN9 (human, UniProt O95484 1-217); experiment: flow cytometry, FreeStyle 293-F transfectants expressing human CLDN9, anti-human IgG Alexa Fluor 647; MFI
T2 construct: also called hCLDN9; hCLDN9/BaF
T2 sequence: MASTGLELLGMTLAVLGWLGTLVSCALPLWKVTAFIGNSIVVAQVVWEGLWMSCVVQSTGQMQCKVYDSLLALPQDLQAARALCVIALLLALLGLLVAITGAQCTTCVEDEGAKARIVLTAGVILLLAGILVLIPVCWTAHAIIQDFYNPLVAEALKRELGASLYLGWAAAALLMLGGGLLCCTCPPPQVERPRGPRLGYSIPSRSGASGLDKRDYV
Method: (§2) Antibodies were mixed with FreeStyle™ 293-F cells transiently expressed human and mouse CLDN3, 4, 6, and 9 at final concentration of 10 micro g/mL. After 1 hour of incubation, cells were washed by 0.1% BSA containing D-PBS(−), and incubated in 5 micro g/mL of either Goat anti-Human IgG (H+L) Cross-Adsorbed Secondary Antibody, Alexa Fluor 647 (Invitrogen, A21445) or Goat anti-Mouse IgG (H+L) Highly Cross-Adsorbed Secondary Antibody, Alexa Fluor 647 (Invitrogen, A21236), for 1 hour. Cells were then washed with 0.1% BSA containing D-PBS(−), resuspended in 5 micro L of 0.1% BSA containing D-PBS(−), and analyzed by flow cytometer (iQue Screener, intellicyte).

mouse CLDN6 = target: T3, mouse CLDN6 (mouse, UniProt Q9Z262 1-219); experiment: flow cytometry, FreeStyle 293-F transfectants expressing mouse CLDN6, anti-human IgG Alexa Fluor 647; MFI
T3 construct: also called mCLDN6; mCLDN6/FS293
T3 chain: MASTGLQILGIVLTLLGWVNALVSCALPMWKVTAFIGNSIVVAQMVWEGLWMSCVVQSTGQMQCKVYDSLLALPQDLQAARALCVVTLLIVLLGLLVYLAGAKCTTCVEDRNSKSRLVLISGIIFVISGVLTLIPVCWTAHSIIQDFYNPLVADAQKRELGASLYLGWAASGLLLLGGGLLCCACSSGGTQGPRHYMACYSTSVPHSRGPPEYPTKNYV
Method: as §2

human CLDN4 [3] = target: T4, human CLDN4 (human, UniProt O14493 1-209); experiment: flow cytometry on hCLDN4/BaF (Ba/F3 transfectant), Alexa Fluor 488 anti-human IgG
T4 construct: also called hCLDN4; hCLDN4/BaF
T4 sequence: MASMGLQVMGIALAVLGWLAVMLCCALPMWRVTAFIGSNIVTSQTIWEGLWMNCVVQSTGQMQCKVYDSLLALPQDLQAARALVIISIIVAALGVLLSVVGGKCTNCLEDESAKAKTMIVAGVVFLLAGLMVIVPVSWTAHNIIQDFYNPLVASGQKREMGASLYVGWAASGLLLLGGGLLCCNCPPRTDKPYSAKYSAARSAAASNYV
Method: as §1

mouse CLDN4 = target: T5, mouse CLDN4 (mouse, UniProt O35054 1-210); experiment: flow cytometry, FreeStyle 293-F transfectants expressing mouse CLDN4, anti-human IgG Alexa Fluor 647; MFI
T5 construct: also called mCLDN4; mCLDN4/FS293
T5 sequence: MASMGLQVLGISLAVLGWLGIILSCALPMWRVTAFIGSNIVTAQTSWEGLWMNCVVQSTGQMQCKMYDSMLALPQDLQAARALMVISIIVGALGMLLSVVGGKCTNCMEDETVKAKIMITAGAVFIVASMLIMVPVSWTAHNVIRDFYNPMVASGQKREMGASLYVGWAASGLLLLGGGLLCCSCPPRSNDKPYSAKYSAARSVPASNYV
Method: as §2

mouse CLDN3 = target: T6, mouse CLDN3 (mouse, UniProt Q9Z0G9 1-219); experiment: flow cytometry, FreeStyle 293-F transfectants expressing mouse CLDN3, anti-human IgG Alexa Fluor 647; MFI
T6 construct: also called mCLDN3; mCLDN3/FS293
T6 sequence: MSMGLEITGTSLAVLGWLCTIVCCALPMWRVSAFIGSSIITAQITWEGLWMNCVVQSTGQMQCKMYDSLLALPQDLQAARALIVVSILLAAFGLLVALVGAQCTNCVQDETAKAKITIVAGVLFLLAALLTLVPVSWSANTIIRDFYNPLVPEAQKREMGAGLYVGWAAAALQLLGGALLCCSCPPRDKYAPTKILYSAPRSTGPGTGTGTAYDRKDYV
Method: as §2

mouse CLDN9 = target: T7, mouse CLDN9 (mouse, UniProt Q9Z0S7 1-217); experiment: flow cytometry, FreeStyle 293-F transfectants expressing mouse CLDN9, anti-human IgG Alexa Fluor 647; MFI
T7 construct: also called mCLDN9; mCLDN9/FS293
T7 sequence: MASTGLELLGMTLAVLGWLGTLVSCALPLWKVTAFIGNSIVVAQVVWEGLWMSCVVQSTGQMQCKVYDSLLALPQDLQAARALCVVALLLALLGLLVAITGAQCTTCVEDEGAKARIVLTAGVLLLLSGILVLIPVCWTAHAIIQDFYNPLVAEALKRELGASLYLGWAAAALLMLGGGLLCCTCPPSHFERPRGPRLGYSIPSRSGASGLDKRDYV
Method: as §2

human CLDN6 (Claudin-6) = target: T8, human CLDN6 (Claudin-6) (human, UniProt P56747 1-220); experiment: flow cytometry, FreeStyle 293-F transfectants expressing human CLDN6, anti-human IgG Alexa Fluor 647; MFI
T8 construct: also called hCLDN6; human Claudin 6
T8 chain: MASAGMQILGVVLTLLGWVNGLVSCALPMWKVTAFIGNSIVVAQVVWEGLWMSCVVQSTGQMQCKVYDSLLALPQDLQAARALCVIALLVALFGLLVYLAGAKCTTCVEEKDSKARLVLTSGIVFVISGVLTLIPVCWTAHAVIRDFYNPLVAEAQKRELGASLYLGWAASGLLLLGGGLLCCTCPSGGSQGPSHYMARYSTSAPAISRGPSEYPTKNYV

human CLDN3 [4] = target: T1, human CLDN3; experiment: flow cytometry on hCLDN3/BaF (Ba/F3 transfectant), Alexa Fluor 488 anti-human IgG; histogram against KLH/TR01
Method: as §1

human CLDN4 [5] = target: T4, human CLDN4; experiment: flow cytometry on hCLDN4/BaF (Ba/F3 transfectant), Alexa Fluor 488 anti-human IgG; histogram against KLH/TR01
human CLDN9 [6] = target: T2, human CLDN9; experiment: flow cytometry on hCLDN9/BaF (Ba/F3 transfectant), Alexa Fluor 488 anti-human IgG; histogram against KLH/TR01

Measured: binding result

B1: KLH/TR01 (bispecific antibody, V domains shown)
VH 1: QVQLQQSGPQLVRPGASVKISCKASGYSFTSYWMHWVNQRPGQGLEWIGMIDPSYSETRLNQKFKDKATLTVDKSSSTAYMQLSSPTSEDSAVYYCALYGNYFDYWGQGTTLTVSS
VL 1: DIQMTQSSSSFSVSLGDRVTITCKASEDIYNRLAWYQQKPGNAPRLLISGATSLETGVPSRFSGSGSGKDYTLSITSLQTEDVATYYCQQYWSTPYTFGGGTKLEVK
VH 2: QVQLVESGGGVVQPGGSLRLSCAASGFTFSNAWMHWVRQAPGKGLEWVAQIKDKSQNYATYVAESVKGRFTISRADSKNSIYLQMNSLKTEDTAVYYCRYVHYAAGYGVDIWGQGTTVTVSS
VL 2: DIVMTQSPLSLPVTPGEPASISCRSSQPLVHSNRNTYLHWYQQKPGQAPRLLIYKVSNRFSGVPDRFSGSGSGTDFTLKISRVEAEDVGVYYCGQGTQVPYTFGQGTKLEIK
notes: made by Fab arm exchange; also called bispecific antibody of anti-keyhole limpet hemocyanin (KLH) antibody paired with the human CD3 antibody TR01; negative control
no binding (tested: 15 micro g/ml): human CLDN3 [1] | human CLDN4 [3]
not listed: human CLDN3 [4] | human CLDN4 [5] | human CLDN9 [6]
no binding (tested: 10 micro g/mL): all other assays above

B2: CS2961 (bispecific antibody, human IgG1, kappa, L234A L235A, N297A)
heavy 1: QVQLVESGGGVVQPGGSLRLSCAASGFTFSSYTMSWVREAPGQGLEWMGTISSGGGRTYYPDSVKGRFTISRDNSKNTLYLQMNSLRDEDTAVYYCARGDYRYDGFAYWGEGTLVTVSSASTKGPSVFPLAPSSKSTSGGTAALGCLVEDYFPEPVTVSWNSGALTSGVHTFPAVLESSGLYSLSSVVTVPSSSLGTQTYICNVNHKPSNTKVDERVEPKSCDKTHTCPPCPAPEAAGGPKVFLFPPKPKDTLMISRTPEVTCVVVDVSHEDPEVKFNWYVDGVEVHNAKTKPREEQYASTYRVVSVLTVLHQDWLNGKEYKCKVSNKGLPSSIEKTISKAKGQPREPQVYTLPPSREEMTKNQVSLTCLVKGFYPSDIAVEWESNGQPENNYKTTPPVLDSDGSFFLYSKLTVDKSRWQQGNVFSCSVMHEALHNHYTQESLSLSP
light 1: DIQMTQSPSSLSASVGDRVTITCRASYNIDSYLAWYQKKPGKAPELLIYYSTLLVDGVPDRFSGSRSGTDFTLTISSLQPEDFATYYCQHYYSIPYTFGQGTKVEIERTVAAPSVFIFPPSDKQLKSGTAKVVCLLNNFYPREAKVQWKVDNALQSGNSKESVTEQDSKDSTYSLSSTLTLSKADYEKHKVYACEVTHQGLSSPVTKSFNRGEC
heavy 2: QVQLVESGGGVVQPGGSLRLSCAASGFTFSNAWMHWVRKAPGKGLEWVAQIKDKSQNYATYVAESVKGRFTISRADSKNSIYLQMNSLKTEDTAVYYCRYVHYAAGYGVDIWGQGTTVTVSSASTKGPSVFPLAPSSKSTSGGTAALGCLVKDYFPEPVTVSWNSGALTSGVHTFPAVLKSSGLYSLSSVVTVPSSSLGTQTYICNVNHKPSNTKVDKRVEPKSCDKTHTCPPCPAPEAAGGPKVFLFPPKPKDTLMISRTPEVTCVVVDVSHEDPEVKFNWYVDGVEVHNAKTKPREEQYASTYRVVSVLTVLHQDWLNGKEYKCKVSNKGLPSSIEKTISKAKGQPREPQVYTLPPSRKEMTKNQVSLTCLVKGFYPSDIAVEWESNGQPENNYKTTPPVLDSDGSFFLYSKLTVDKSRWQQGNVFSCSVMHEALHNHYTQKSLSLSP
light 2: DIVMTQSPLSLPVTPGEPASISCRSSQPLVHSNRNTYLHWYQEKPGQAPRLLIYKVSNRFSGVPDRFSGSGSGTDFTLKISRVEAEDVGVYYCGQGTQVPYTFGQGTKLEIKRTVAAPSVFIFPPSDEQLKSGTAEVVCLLNNFYPREAKVQWKVDNALQSGNSEESVTEQDSKDSTYSLSSTLELSKADYEKHKVYACEVTHQGLSSPVTKSFNRGEC
notes: also called 65HQ39E-SG1212/54L0532Q38K-SK1021//TR01 arm with SG1213/SK1017
no binding (tested: 15 micro g/ml): human CLDN3 [4] | human CLDN4 [5] | human CLDN9 [6]
